The source of these data is article PMC11802746 (Nature Communications, 2025).

For the test, the target named is GST-MST3 (human, UniProt Q9Y6E0-2 1-431). Nature of the test: pull-down.

B1: His-SUMO-tagged PGAM5 (25-289) (domain or fragment, human, UniProt Q96HS1 25-289, looked up)
chain: AVAVGKPRAGGDAEPRPAEPPAWAGGARPGPGVWDPNWDRREPLSLINVRKRNVESGEEELASKLDHYKAKATRHIFLIRHSQYHVDGSLEKDRTLTPLGREQAELTGLRLASLGLKFNKIVHSSMTRAIETTDIISRHLPGVCKVSTDLLREGAPIEPDPPVSHWKPEAVQYYEDGARIEAAFRNYIHRADARQEEDSYEIFICHANVIRYIVCRALQFPPEGWLRLSLNNGSITHLVIRPNGRVALRTLGDTGFMPPDKITRS
For B1, the binding result was “binds”.
